We go through 9 molecules from patent US20240158799, “[…] THAT […] BIND TO A SARS-COV-2 VIRUS NUCLEOCAPSID PROTEIN” (IQ SCIENCE LIMITED, published 2024).

In data set [1] the target is SARS-CoV-2 nucleocapsid protein (SARS-CoV-2, UniProt P0DTC9 P0DTC9:1-419).
Data set [2] concerns the target SARS-CoV-2 spike protein (S1/S2 complex) (SARS-CoV-2, UniProt P0DTC2 P0DTC2:14-1213).

B1: N08 (ssDNA)
DNA: TAACCACATAACCGCAAGACCACACGCACGAAAACAATTGACATGAAATTTACGGCTCTTATTGTGCTACTCTCCTCGT
Consider B1, for which the Kd (as a rule, the equilibrium constant for the complex coming apart) in data set [1] came out at 18.7 nM.

B2: SS04 (ssDNA)
DNA: TAACCACATAACCGCAAGACGAACGAACCATATAACGCGTAGTAACATCCAAGGCGCCCTATTGTGCTACTCTCCTCGT
With B2, the binding result in data set [2] was “binds”.

B3: SS20 (ssDNA)
DNA: TAACCACATAACCGCAAGACGAACACCGATGCCGCGCACAATCGTGTAAACGGATGTCCTATTGTGCTACTCTCCTCGT
As for B3, the binding result in data set [2] is “binds”.

B4: SS12 (ssDNA)
DNA: TAACCACATAACCGCAAGACGATGGCCGCAACCGAGAAACTATGACGATGGATCACGGCTATTGTGCTACTCTCCTCGT
Consider B4, for which, in data set [2], the binding result is “binds”.

B5: SS48 (ssDNA)
DNA: TAACCACATAACCGCAAGACGACGACACAAAAGCATTTCGGCAATCCGACAGTGGTCCATATTGTGCTACTCTCCTCGT
Take B5: the binding result in data set [2] is recorded as “binds”.

B6: N06 (ssDNA)
DNA: TAACCACATAACCGCAAGATCCCGATAGACCCGCGTCTCATGTACCTTACATGCTACGATATTGTGCTACTCTCCTCGT
Turning to B6, the Kd in data set [1] was determined as 25.1 nM.

B7: SS10 (ssDNA)
DNA: TAACCACATAACCGCAAGACGCACGCAAAACTTTCAGTAATCCTAAGATGCCATGTTACTATTGTGCTACTCTCCTCGT
Regarding B7, the binding result in data set [2] was “binds”.

B8: N11 (ssDNA)
DNA: TAACCACATAACCGCAAGACGACGCGATACAAAACACTACTAATCTCTCGTCGCACTAGTATTGTGCTACTCTCCTCGT
With B8, in data set [1], the affinity, expressed as Kd, was 29.6 nM.

B9: SS18 (ssDNA)
DNA: TAACCACATAACCGCAAGACCAGCAGAAAACTCAACATAAGCAGCAGTTCGGGCGCTACTATTGTGCTACTCTCCTCGT
Take B9: the binding result in data set [2] is reported as “binds”.
